Consider 1 molecule from doi:10.1101/2020.04.13.039982 (bioRxiv, 2020).

The assay concerns the target T1, 6His-She1 C-terminal fragment (residues 194 to 338) (S. cerevisiae, UniProt P38200 194-338).
T1 sequence (looked up): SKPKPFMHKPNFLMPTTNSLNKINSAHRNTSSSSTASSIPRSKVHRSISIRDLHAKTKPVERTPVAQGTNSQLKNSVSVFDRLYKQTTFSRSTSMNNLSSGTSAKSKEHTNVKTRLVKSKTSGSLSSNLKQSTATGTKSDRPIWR
In words: pull-down.

B1: peptide encompassing the C-terminus of Tub1 (amino acids 415-447), wild-type (peptide)
peptide: not shown
For B1, the binding result is “binds”.
